From patent US20060148057A1, “Thioredoxin mutants and uses thereof” (priority 2002, published 2006)

Legend:
ASK1 [1] = experiment: Association of Trx with ASK1 in vivo in BAEC (co-immunoprecipitation); assay type: binding, Bovine; details: for association of Flag-Trx with HA-ASK1 after TNF treatment: TNF 10 ng/ml for 15 min; for binding of Flag-Trx to HA-ASK1: resting EC, co-immunoprecipitation
Protocol: (§1) Immunoprecipitation and immunoblotting EC after various treatments were washed twice with cold PBS and lysed in 1.5 ml of cold lysis buffer (50 mM Tris-HC, pH 7.6, 150 mM NaCl, 0.1% Triton X-100, 0.75% Brij 96, 10 μg/ml aprotinin, 10 μg/ml leupeptin, 2 mM PMSF, 1 mM EDTA) for 20 min on ice. Protein concentrations were determined with a Bio-Rad kit. For immunoprecipitation to analyze protein interaction in vivo, 400 μg of cell lysate supematant were incubated with 5 μg of the first protein-specific antiserum (e.g. anti-Trx from Medical & Biological Laboratory) for 2 h with 50 μl of GammaBind plus Sepharose. Immune complexes were collected after each immunoprecipitation by centrifugation at 14,000× g for 10 min followed by 4 washes with lysis buffer. The immune complexes were subjected to Western blot with the second protein (e.g., ASK1)-specific antibody (Santa Cruz Biotech, Santa Cruz, Calif.). The chemiluminescence was detected using an ECL kit according to the instructions of the manufacturer (Amersham Life Science, Arlington Heights, Ill.). For Flag-tagged and HA-tagged proteins, anti-Flag M2 antibody (Sigma) and anti-HA antibody (Roche Diagnostics) were used, respectively.
TNF dissociates wild type Trx but not Trx-C32S or Trx-C35Sfroin ASK1 in vivo. Trx-C32S and Trx-C35S were examiner to determine whether they constitutively bind to ASK1 in vivo. Regulation of ASK1 by Trx was first examined to determine if such regulation is ROS-dependent in EC. BAEC were either untreated or treated with N-acetyl-cysteine (Nac, 1 mM) or vehicle for 60 min prior to TNF-α (10 ng/ml) stimulation for 15 min. TNF-induced ASK1 activation was measured by an in vitro kinase assay using GST-MKK4 (JNKK1) fusion protein as a substrate. TNF activated ASK1 in EC (FIG. 5A). […] Association of ASK1 with Trx was easily detected in untreated EC cells (FIG. 5B, Ctrl). […] In contrast, Nac pretreatment prevented TNF-induced dissociation of ASK1 from Trx. Similar results were obtained in human EC (HUVEC).
To examine association of Trx mutants with ASK1 in vivo, the Flag-tagged Trx construct (WT, CS, C32S or C35S) was co-transfected with HA-ASK1 into BAEC and the interaction of these Trx proteins with ASK1 were examined by co-immunoprecipitation assay. As expected, Trx-WT, Trx-C32S and Trx-Trx-C35S (but not Trx-CS) bound to ASK1 in resting EC (FIG. 5C).
Target sequence in this assay (Q99683 whole entry, the tested form may be a part): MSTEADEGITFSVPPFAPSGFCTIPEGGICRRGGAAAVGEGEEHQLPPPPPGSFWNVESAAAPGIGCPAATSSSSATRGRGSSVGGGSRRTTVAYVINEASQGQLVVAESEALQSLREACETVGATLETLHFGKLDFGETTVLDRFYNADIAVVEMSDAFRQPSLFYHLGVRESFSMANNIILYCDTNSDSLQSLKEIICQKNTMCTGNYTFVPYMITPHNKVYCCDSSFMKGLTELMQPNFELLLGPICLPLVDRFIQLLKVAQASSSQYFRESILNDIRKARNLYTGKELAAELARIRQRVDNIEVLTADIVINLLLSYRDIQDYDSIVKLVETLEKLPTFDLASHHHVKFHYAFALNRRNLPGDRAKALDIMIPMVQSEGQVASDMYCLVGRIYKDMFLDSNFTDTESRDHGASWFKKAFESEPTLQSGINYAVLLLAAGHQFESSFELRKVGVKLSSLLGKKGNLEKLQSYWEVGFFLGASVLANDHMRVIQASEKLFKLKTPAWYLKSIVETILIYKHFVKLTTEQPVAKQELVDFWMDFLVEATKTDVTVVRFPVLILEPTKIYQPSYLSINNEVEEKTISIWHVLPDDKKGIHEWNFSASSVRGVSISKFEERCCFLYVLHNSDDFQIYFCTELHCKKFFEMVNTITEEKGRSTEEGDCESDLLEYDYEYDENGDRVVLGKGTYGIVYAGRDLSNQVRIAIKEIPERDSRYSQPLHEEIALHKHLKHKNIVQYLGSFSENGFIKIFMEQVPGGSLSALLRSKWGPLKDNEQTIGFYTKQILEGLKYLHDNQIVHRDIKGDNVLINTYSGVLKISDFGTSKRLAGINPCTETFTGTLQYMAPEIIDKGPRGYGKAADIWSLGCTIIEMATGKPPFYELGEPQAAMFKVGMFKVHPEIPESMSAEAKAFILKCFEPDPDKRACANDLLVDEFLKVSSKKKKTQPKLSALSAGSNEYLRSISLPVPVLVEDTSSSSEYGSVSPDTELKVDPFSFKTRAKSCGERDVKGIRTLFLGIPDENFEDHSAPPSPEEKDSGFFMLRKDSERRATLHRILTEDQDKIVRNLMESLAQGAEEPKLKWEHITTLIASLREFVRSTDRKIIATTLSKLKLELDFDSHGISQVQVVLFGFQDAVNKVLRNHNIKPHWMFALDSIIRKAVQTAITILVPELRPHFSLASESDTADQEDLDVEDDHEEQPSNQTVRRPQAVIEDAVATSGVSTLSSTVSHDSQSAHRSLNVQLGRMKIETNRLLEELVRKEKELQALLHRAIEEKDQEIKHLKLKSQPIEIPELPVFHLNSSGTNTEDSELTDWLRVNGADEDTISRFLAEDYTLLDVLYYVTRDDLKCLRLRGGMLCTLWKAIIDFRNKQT

BAEC = experiment: GFP co-transfection killing assay, ASK1-induced EC death; assay type: cell-based, Bovine; details: for inhibitory effect on ASK1-induced apoptosis under TNF treatment: TNF 10 ng/ml
Protocol: Trx inhibits ASK1-induced JNK activation and caspase 3 activity. BAEC were co-transfected with ASK1 and Trx constructs in 1:1 ratio as indicated: control vector alone (Ctrl), ASK1 with VC, Trx-WT, Trx-CS, Trx-C32S or Trx-C35S. 24 h post-transfection, cell lysates were used to examine JNK and caspase 3 activity. […] JNK activity was measured by an in vitro kinase assay GST-c-Jun as a substrate. Trx expression was determined by Western blot anti-Flag. […] Caspase 3 activity was measured by Sigma's Caspase 3 Fluorometric Assay Kit in the absence or presence of caspase 3 inhibitor Ac-DEVD-CHO. Assay was performed as duplicates. Caspase 3 activities were normalized with the Ctrl group (as zero). Data are presented from mean of two independent experiments. […] 6-well BAEC were co-transfected with a GFP expression construct and ASK1/Trx constructs as indicated (1 μg GFP, 1 μg ASK1, 1 μg Trx, total DNA was kept to 3 μg by adding VC): control vector alone (Ctrl), ASK1 with VC, Trx-WT, Trx-CS, Trx-C32S or Trx-C35S. Cells were cultured in the presence or absence of TNF (10 ng/ml). 48 h after transfection, GFP-positive cells were counted as survival cells. The survival rate is shown (Ctrl group as 100%). Data are presented from mean of four independent experiments. […] BAEC were transfetced as in FIG. 6C. 6-well BAEC were transfetced with GFP (1 μg) and Trx -expressing construct (1 μg each) as indicated. 24 h after transfection, cells were either left untreated or treated with TNF (10 ng/ml) plus CHX (10 μg/ml) for 24 h. GFP-positive cells were counted as survival cells. […] Data are presented from mean of four independent experiments.
Quantitation of cell killing: Cell killing assay was performed as described previously with a modification (Slowik M R et al. Evidence that tumor necrosis factor triggers apoptosis in human endothelial cells by interleukin-1-converting enzyme-like protease- dependent and -independent pathways. Lab Invest. 77:257-67 (1997)). EC were transfected with a combination of GFP reporter plasmid and the control vector or experimental expression plasmids for ASK1 and Trx at 1:1 ratio as indicated. GFP-positive cells were visualized under a fluorescence microscope and counted as number of survival cells.
ASK1-induced EC death was measured by a GFP co-transfection killing assay as previously described with minor modifications (Slowik M R Evidence that tumor necrosis factor triggers apoptosis in human endothelial cells by interleukin-1-converting enzyme-like protease- dependent and -independent pathways. Lab Invest. 77:257-67 (1997)). Overexpression of ASK1 in EC (BAEC or HUVEC) induced 60% cell death at 48 h post-transfection, i.e., 40% of GFP-positive (survival) EC compared to the control cells (Ctrl as 100% survival, FIG. 6C).

ASK1 [2] = experiment: Trx-induced ASK1 ubiquitination and degradation in transfected BAEC (Western blot, IP/anti-Ub); assay type: cell-based, Bovine; details: for ASK1 poly-ubiquitination / endogenous ASK1 protein level: BAEC transfected with Trx construct vs control vector; for endogenous ASK1 protein level: Western blot anti-ASK1
Protocol: Transfection Transfection of EC was performed by Lipofectamine2000 according to manufacturer's protocol (Gibco). Cells were cultured at 90% confluence in 6-well plates and were transfected with total 4 μg plasmid constructs as indicated. Cells were harvested at 36-48 h post-transfection and cell lysates were used for protein assays.
as §1
Trx induces ASK1 ubiquitination and degradation in EC. To determine if Trx affects ASK1 protein stability, BAEC were transfected with Trx-expressing plasmid or a control vector (VC) with Lipofactamine2000. Transfection efficiency was determined by transfection of a GFP construct under a fluorescence microscope and usually reached 90% in BAEC and 10% in HUVEC. The high transfection efficiency in BAEC allowed us to examine effects of transgene on endogenous ASK1. Endogenous ASK1 was determined by Western blot with anti-ASK1. […] The high molecular bands are usually ubiquitination of target proteins for degradation (Laney J D et al. Substrate targeting in the ubiquitin system. Cell 97:427-30 (1999)). […] The ubiquitination of ASK1 was also confirmed by co-expression of ASK1 and HA-tag Ub (Treier et al. Ubiquitin-dependent c-Jun degradation in vivo is mediated by the delta domain. Cell 78:787-98 (1994)).

Molecule	association of Flag-Trx with HA-ASK1 after TNF treatment (ASK1 [1])	binding of Flag-Trx to HA-ASK1 (ASK1 [1])	ASK1-ΔN-induced apoptosis (BAEC)	inhibitory effect on ASK1-induced apoptosis under TNF treatment (BAEC)	ubiquitination and degradation of ASK1-ΔN (ASK1 [2]; BAEC co-transfected with ASK1-ΔN (lacks N-terminal Trx-binding domain))	ASK1 poly-ubiquitination (ASK1 [2])	endogenous ASK1 protein level (ASK1 [2])	endogenous ASK1 protein level (ASK1 [2]; listed as Trx)	ASK1 poly-ubiquitination (ASK1 [2]; listed as Trx)
thioredoxin (protein, Flag tag or GST fusion, Flag-tagged or GST fusion) MVKQIESKTAFQEALDAAGDKLVVVDFSATWCGPCKMIKPFFHSLSEKYSNVIFLEVDVDDCQDVASECEVKCMPTFQFFKKGQKVGEFSGANKEKLEATINELV	completely dissociated	bound to ASK1	did not inhibit	diminished the inhibitory effect	did not induce ubiquitination and degradation	increased ASK1 poly-ubiquitination	decrease in ASK1 protein	decreased protein level of ASK1	significantly increased ASK1 ubiquitination
Trx-C35S: C35S single mutant of Trx at the catalytic site, SEQ ID NO:3 (protein) MVKQIESKTAFQEALDAAGDKLVVVDFSATWCGPSKMIKPFFHSLSEKYSNVIFLEVDVDDCQDVASECEVKCMPTFQFFKKGQKVGEFSGANKEKLEATINELV	not reduced	bound to ASK1	–	retained their inhibitory effects	–	increased ASK1 poly-ubiquitination	decrease in ASK1 protein	–	–
Trx-C32S: C32S single mutant of Trx at the catalytic site, SEQ ID NO:2 (protein) MVKQIESKTAFQEALDAAGDKLVVVDFSATWSGPCKMIKPFFHSLSEKYSNVIFLEVDVDDCQDVASECEVKCMPTFQFFKKGQKVGEFSGANKEKLEATINELV	not reduced	bound to ASK1	–	retained their inhibitory effects	–	increased ASK1 poly-ubiquitination	decrease in ASK1 protein	–	–
